Results published in patent publication US20250154236A1, “PREVENTION AND TREATMENT OF HEADACHES” (GlaxoSmithKline Intellectual Property (No. 3) Limited, priority 2022, published 2025).
Read-outs that look alike come from different tables or passages of the source. Blank lines part the entries; values can stand above or below the molecule they belong to.

Experiments:
[1] = system: adult rat trigeminal ganglia neurons; assay: CGRP release from cultured rat trigeminal ganglia neurons (ELISA); format: cell-based
Procedure: (§1) TG Cultures were prepared from 8-10-week Sprague-Dawley rats. Following cervical dislocation and cardiac cessation, trigeminal ganglia (TG) were dissociated and collected in ice cold HBSS buffer. TGs were digested in 20 U/ml papain for 20 min followed by another 20-min enzymatic digestion in 2% Collagenase Type 4 and Dispase II in 37° C. water bath. Digested TG ganglia were suspended in Leibovitz's L15 medium containing 10% Fetal Bovine Serum, 1% penicillin/streptomycin, 18.5 mM NaHCO3, 38 mM glucose. Cell suspensions were filtered in a 70 μm then a 40 μm cell strainer and were layered onto Leibovitz's L15 medium containing 4% BSA cushion followed by slow speed centrifuge at 100 g, 10 min. Cell pellets were suspended with DMEM medium containing 10% Fetal Bovine Serum and 1% penicillin/streptomycin. Cells were plated onto 96-well plates and cultured for 24 hours at 37° C., 5% CO2. Recombinant rat artemin protein and vehicle control buffer were added into appropriate wells for 24-hour pre-incubation as needed. For experiments testing the effect of an anti-artemin antibody or RET inhibitor, these agents were added to the TG culture simultaneously with artemin for 24 h for CGRP and SP assay or 48 h for PACAP assay. After 24 h or 48 h incubation, cell culture medium was removed and assay buffer containing TRPV1 agonist capsaicin (CAP) or TRPA1 agonist allyl isothiocyanate (AITC) were added into wells and incubated at 37° C., 10 min to trigger neuropeptide release. At the end of stimulation, the supernatant was collected and CGRP and SP content were measured using ELISA assay kits (Bertin Bioreagent). For PACAP assay, cells were cultured and pre-incubated with artemin for 48 hours prior to agonist stimulation to trigger PACAP release. PACAP content in supernatant was measured using an in-house developed ELISA assay.

[2] = system: adult rat trigeminal ganglia neurons; assay: as above; format: cell-based; conditions: Neuron, 0.5 h
[3] = system: rat (preclinical migraine model); assay: Artemin dural infusion study, periorbital von Frey sensitivity; format: in vivo; conditions: local dural infusion daily for five consecutive days, 0.018, 0.18 and 1.8 μg; versus vehicle, first two weeks
Procedure: Briefly, three different doses of rat artemin protein, inflammatory soup cocktail and vehicle buffer were administered daily via a stainless-steel cannula (22GA, Plastics One) embedded onto dura for 5 consecutive days to produce persistent facial hypersensitivity. Sensory testing occurred during the day using von Frey filaments with reproducible calibrated buckling forces varying from 0.4-10 g utilizing the simplified Chaplan up-and-down method. Allodynia was tested by perpendicularly touching the periorbital region causing slight buckling of the filament for approximately 5 seconds. The periorbital withdrawal threshold (g) was calculated based on the response pattern and the force of the final filament. The periorbital threshold data was recorded on the side of artemin, Inflammatory Soup Cocktail, or vehicle infusion only.

rat TG neurons [4] = assay: Substance P release from cultured rat trigeminal ganglia neurons (ELISA); format: cell-based; conditions: artemin pre-incubation
Procedure: as §1, with “For experiments testing the effect of an anti-artemin antibody or RET inhibitor, these agents were added to the TG culture simultaneously with artemin for 24 h for CGRP and SP assay or 48 h for PACAP assay. After 24 h or 48 h incubation, cell culture medium was removed and assay buffer containing TRPV1 agonist capsaicin (CAP) or TRPA1 agonist allyl isothiocyanate (AITC) were added into wells and incubated at 37° C., 10 min to trigger neuropeptide release.” left out, “For PACAP assay, cells were cultured and pre-incubated with artemin for 48 hours prior to agonist stimulation to trigger PACAP release.” left out

rat TG neurons [5] = assay: PACAP release from cultured rat trigeminal ganglia neurons (in-house ELISA); format: cell-based; conditions: artemin treatment for 48 hours
Procedure: as §1, with “For experiments testing the effect of an anti-artemin antibody or RET inhibitor, these agents were added to the TG culture simultaneously with artemin for 24 h for CGRP and SP assay or 48 h for PACAP assay. After 24 h or 48 h incubation, cell culture medium was removed and assay buffer containing TRPV1 agonist capsaicin (CAP) or TRPA1 agonist allyl isothiocyanate (AITC) were added into wells and incubated at 37° C., 10 min to trigger neuropeptide release.” left out, “For PACAP assay, cells were cultured and pre-incubated with artemin for 48 hours prior to agonist stimulation to trigger PACAP release.” left out

EC50 ([1]; Neuron, CAP+ARTN (24 h), 10 ng/ml rat artemin, read-out: EC50 of CAP for CGRP release): 20.2 nM | EC50 ([1]; Rattus norvegicus, Neuron, CAP alone, no artemin, read-out: EC50 of CAP for CGRP release): 21.6 nM | EC50 ([2]; CAP+ARTN (30 min), 10 ng/ml rat artemin, read-out: EC50 of CAP for CGRP release): 17.9 nM
Molecule: COc1cc(CNC(=O)CCCC/C=C/C(C)C)ccc1O [CAP, capsaicin, reference compound]

Molecule: C=CCN=C=S [AITC, allyl isothiocyanate, reference compound]
EC50 ([1]; Rattus norvegicus, Neuron, 24 h, read-out: EC50 of AITC for CGRP release): 6940 nM | EC50 ([1]; Rattus norvegicus, Neuron, read-out: EC50 of AITC for CGRP release): 17800 nM | EC50 ([2]; Rattus norvegicus, read-out: EC50 of AITC for CGRP release): 6600 nM

EC50 for artemin-potentiation of CGRP release ([1]; AITC stimulation, 24 hours of treatment): 0.092 ng/mL | EC50 ([1]; AITC stimulation, 24 hours of treatment, read-out: EC50 for artemin-potentiation of CGRP release): 0.0038 nM | EC50 for artemin-potentiation of CGRP release ([1]; CAP stimulation, 24 hours of treatment): 0.028 ng/mL
B1: artemin: Recombinant rat artemin protein, member of GDNF ligand family (protein)
chain: AGTRSSRARATDARGCRLRSQLVPVSALGLGHSSDELIRFRFCSGSCRRARSPHDLSLASLLDAGALRSPPGSRPISQPCCRPTRYEAVSFMDVNSTWRTVDHLSATACGCLG
artemin concentration reaching maximal effect on stimulated CGRP release ([1]; CAP and AITC fixed at ~EC50, artemin range 0.001 to 100 ng/ml): 1 ng/mL | periorbital sensitivity to mechanical stimulation [3]: significantly increased | effect on CAP- and AITC-stimulated Substance P (SP) release (rat TG neurons [4]): dose-dependently increased | effect on CAP- and AITC-stimulated PACAP release (rat TG neurons [5]): potentiated
